# Values quoted from earlier work as cited in publication PMC12805100.
# Read-outs that look alike come from different tables or passages of the source.
# Assays:
# [1] = biological target: Calmodulin (Homo sapiens) (UniProt P0DP23)
# [2] = biological target: Calmodulin (Homo sapiens) (UniProt P0DP23); remark: listed apart in the source
substance,measurement,setting,value
TRPA1 DCTCaMBE (from UniProt O75762),Kd,[1],600 nM
same,Kd,[2],100 nM
